From patent US20200317802A1 (Merck KGaA, published 2020)

T1: recombinant human ADAMTS5 (R&D Systems cat #2198-AD) (human, UniProt Q9UNA0 262-622, limits assumed)
T1 sequence: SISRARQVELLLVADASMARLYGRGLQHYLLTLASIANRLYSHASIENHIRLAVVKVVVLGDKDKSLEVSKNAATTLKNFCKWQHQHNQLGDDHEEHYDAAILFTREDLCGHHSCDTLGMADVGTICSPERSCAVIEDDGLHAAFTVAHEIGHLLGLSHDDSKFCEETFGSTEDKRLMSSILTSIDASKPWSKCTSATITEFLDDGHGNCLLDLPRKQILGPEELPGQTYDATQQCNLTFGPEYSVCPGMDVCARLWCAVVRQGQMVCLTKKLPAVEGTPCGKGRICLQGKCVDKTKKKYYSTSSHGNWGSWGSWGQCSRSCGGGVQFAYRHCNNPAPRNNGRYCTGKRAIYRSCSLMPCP

T2: guinea pig recombinant ADAMTS5 (guinea pig)
T2 construct: in house, HEK293, His tag in the entry
T2 chain: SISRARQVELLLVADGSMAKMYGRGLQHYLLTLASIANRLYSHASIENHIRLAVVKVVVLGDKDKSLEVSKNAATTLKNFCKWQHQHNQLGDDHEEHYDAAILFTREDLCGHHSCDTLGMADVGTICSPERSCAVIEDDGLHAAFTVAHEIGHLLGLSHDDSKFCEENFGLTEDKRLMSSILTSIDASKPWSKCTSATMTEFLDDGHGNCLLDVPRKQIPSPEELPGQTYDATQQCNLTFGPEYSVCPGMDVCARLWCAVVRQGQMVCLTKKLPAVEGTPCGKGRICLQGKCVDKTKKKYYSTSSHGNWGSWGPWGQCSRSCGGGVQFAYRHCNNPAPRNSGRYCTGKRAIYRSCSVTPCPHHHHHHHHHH

T3: cynomolgus monkey recombinant ADAMTS5 (cynomolgus monkey, UniProt Q9UNA0 262-622 (human entry), limits assumed)
T3 construct: in house, HEK293, His tag in the entry; also called cyno ADAMTS5
T3 chain: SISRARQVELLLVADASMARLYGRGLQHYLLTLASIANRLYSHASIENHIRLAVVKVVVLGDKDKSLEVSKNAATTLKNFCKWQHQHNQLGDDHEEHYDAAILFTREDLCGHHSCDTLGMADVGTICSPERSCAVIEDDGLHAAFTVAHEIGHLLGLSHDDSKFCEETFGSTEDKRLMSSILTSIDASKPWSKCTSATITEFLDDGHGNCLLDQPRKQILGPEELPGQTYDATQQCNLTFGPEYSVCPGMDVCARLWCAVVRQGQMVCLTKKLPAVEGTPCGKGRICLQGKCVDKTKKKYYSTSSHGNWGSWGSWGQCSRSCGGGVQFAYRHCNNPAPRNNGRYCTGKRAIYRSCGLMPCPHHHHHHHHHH

T4: mouse recombinant ADAMTS5 (mouse, UniProt Q9R001 262-622, limits assumed)
T4 construct: in house, HEK293, His tag in the entry
T4 sequence: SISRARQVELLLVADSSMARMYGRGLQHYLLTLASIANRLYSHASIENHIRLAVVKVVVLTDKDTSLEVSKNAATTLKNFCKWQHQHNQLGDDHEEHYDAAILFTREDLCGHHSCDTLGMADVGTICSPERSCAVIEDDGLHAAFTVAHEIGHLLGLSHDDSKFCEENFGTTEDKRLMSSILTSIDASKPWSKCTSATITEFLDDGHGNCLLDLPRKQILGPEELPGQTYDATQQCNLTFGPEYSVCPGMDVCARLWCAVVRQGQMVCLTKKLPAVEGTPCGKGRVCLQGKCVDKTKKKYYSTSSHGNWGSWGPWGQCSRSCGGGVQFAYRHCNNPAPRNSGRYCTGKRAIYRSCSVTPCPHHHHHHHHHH


Experiments:
[1] = target: T1, recombinant human ADAMTS5 (R&D Systems …); assay: cell-based or functional assay
[2] = target: T1, recombinant human ADAMTS5 (R&D Systems …); assay: binding ELISA, periplasmic extract on coated human ADAMTS5
Protocol: In a first step, periplasmic extracts were tested for binding to recombinant human ADAMTS5 by binding ELISA. In brief, recombinant human ADAMTS5 (R&D Systems, Minneapolis, US; cat #2198-AD) at a concentration of 1 μg/ml was coated on 384-well MaxiSorp plates (Nunc, Wiesbaden, Germany). Wells were blocked with a casein solution (1%). After addition of a 10-fold dilution of the periplasmic extracts, Nanobody binding was detected using a mouse anti-Flag-HRP conjugate (Sigma, St. Louis, US) and a subsequent enzymatic reaction in the presence of the substrate esTMB (3,3′,5,5′-tetramentylbenzidine) (SDT, Brussels, Belgium). Clones showing ELISA signals higher than the sum of the average signal of the irrelevant Nanobody controls and 3 times the standard deviation of the irrelevant Nanobody controls were considered to encode positive human ADAMTS5 binding Nanobodies.

[3] = target: T2, guinea pig recombinant ADAMTS5; assay: SPR off-rate, Biacore T100, ADAMTS5 immobilised, experiment 1
Protocol: (§1) Species cross-reactivity was initially evaluated via SPR-based off-rate analysis on a Biacore T100 instrument. Nanobodies were tested for binding to human, cynomolgus monkey (“cyno”), guinea pig, mouse, and bovine ADAMTS5. To this end, recombinant ADAMTS5 was immobilized onto a CM5 chip via amine coupling using EDC and NHS. Purified Nanobodies were injected for 2 minutes at a concentration of 100 nM and allowed to dissociate for 15 min at a flow rate of 45 ul/min. Off-rate for each individual Nanobody was determined by fitting a 1:1 interaction model (Langmuir model) onto the individual dissociation curves using the BIA Evaluation software. As a reference, off-rates on human ADAMTS5 were determined in each experiment.

[4] = target: T1, recombinant human ADAMTS5 (R&D Systems …); assay: as above
Protocol: as §1

[5] = target: T3, cynomolgus monkey recombinant ADAMTS5; assay: as above
Protocol: as §1

[6] = target: T1, recombinant human ADAMTS5 (R&D Systems …); assay: SPR off-rate, Biacore T100, ADAMTS5 immobilised, experiment 2
Protocol: as §1

[7] = target: T4, mouse recombinant ADAMTS5; assay: as above
Protocol: as §1

[8] = target: T1, recombinant human ADAMTS5 (R&D Systems …); assay: SPR off-rate, Biacore T100, ADAMTS5 immobilised, experiment 3
Protocol: as §1

[9] = target: T1, recombinant human ADAMTS5 (R&D Systems …); assay: cell-based or functional assay; remark: listed apart in the source

Human AlphaLISA % inhibition [1]	Human AlphaLISA IC50 [1]	binding ELISA (OD 450 nm) [2]	koff [3]	koff [4]	koff [5]	koff [6]	koff [7]	koff [8]	AlphaLISA IC50, - HSA [9]	Binder
100%	150 pM	1.75 OD 450 nm	0.00012 s⁻¹	0.00014 s⁻¹	0.0001 s⁻¹	0.00023 s⁻¹	0.00044 s⁻¹	0.00031 s⁻¹	150 pM	Nanobody 2A12 (VHH, tagged as tested (anti-Flag detection, IMAC); also called 02A12) VHH: EVQLVESGGGLVQAGGSLRLSCAASGRTFSSYAMGWFRQAPGKERDFVAGISRSAGRTYYVDSVKGRFTISRDSAKNTVYLQMNRLKPEDTAVYYCAADLDPNRIFSRDEAAYWGQGTLVTVSS
100%	75 pM	1.84 OD 450 nm	3.4e-05 s⁻¹	3.3e-05 s⁻¹	2.2e-05 s⁻¹	6.5e-05 s⁻¹	0.00029 s⁻¹	9.7e-05 s⁻¹	75 pM	Nanobody 2F03 (VHH, tagged as tested (anti-Flag detection, IMAC); also called 02F03; 2F3) VHH: EVQLVESGGGLVQAGGSLRLSCAASGRTVSSYAMGWFRLAPGKEREFVAGISRSAERTYYVDSLKGRFTISRDSAKNTVYLHMNRLKPEDTAVYYCAADLDPNRIFSREEYAYWGQGTLVTVSS
